Experimental data reported in paper PMC5296760, “Structural basis of the interaction between Topoisomerase IIIβ and the TDRD3 auxiliary factor” (Scientific Reports, 2017).
Several values for one entry are separate records, joined by “and”; a condition that tells them apart may be missing. Equal entries are not always repeated.

B1: TDRD3 (1–161) of the TOP3β–TDRD3 complex (domain or fragment, human, UniProt Q9H7E2-3 1-161, looked up)
chain: MAQVAGAALSQAGWYLSDEGIEACTSSPDKVNVNDIILIALNTDLRTIGKKFLPSDINSGKVEKLEGPCVLQIQKIRNVAAPKDNEESQAAPRMLRLQMTDGHISCTAVEFSYMSKISLNTPPGTKVKLSGIVDIKNGFLLLNDSNTTVLGGEVEHLIEKW
notes: human TDRD3 DUF1767 and OB-fold domains; made as 1–171, cut by chymotrypsin at Trp161, deposited as 1–161; also called TDRD3 DUF–OB; source: E. coli Rosetta (DE3), purified; TDRD3 (1–171) mixed with TOP3β (1–612), trimmed with chymotrypsin, SEC; not shown: GST, N-terminal, cleaved
B2: TDRD3 OB-fold domain (48–171) (domain or fragment, human, UniProt Q9H7E2-3 48-171, looked up)
chain: IGKKFLPSDINSGKVEKLEGPCVLQIQKIRNVAAPKDNEESQAAPRMLRLQMTDGHISCTAVEFSYMSKISLNTPPGTKVKLSGIVDIKNGFLLLNDSNTTVLGGEVEHLIEKWELQRSLSKHN
notes: human TDRD3 OB-fold domain, residues 48–171; purification is described only for DUF–OB; also called TDRD3 OB-fold domain alone; source: E. coli Rosetta (DE3) (as told for DUF–OB)

Target: GST-TOP3β (1–612), wild type (human) (UniProt O95985)
Experiment: pull-down; GST-TOP3β (1–612) on Glutathione Sepharose FF, 0.5 μM TDRD3 or RMI1 protein (Fig. 3c, 4d, 4e); 20 mM Tris-Cl pH 7.4, 200 mM NaCl, 1 mM MgCl2, 5 mM β-mercaptoethanol, 0.1% Triton X-100, 4 °C, 2 hrs; Coomassie, densitometry
Settings: not given

“TDRD3 DUF–OB F111Y (from UniProt Q9H7E2-3 1-161) (domain or fragment)” and “TDRD3 DUF–OB R96M/F111Y (from UniProt Q9H7E2-3 1-161) (domain or fragment)” cannot be ordered by percent of wild-type binding: > 70% for the first, > 70% for the second.

“TDRD3 DUF–OB R96M (from UniProt Q9H7E2-3 1-161) (domain or fragment)” and “TDRD3 DUF–OB R96M/F139V (from UniProt Q9H7E2-3 1-161) (domain or fragment)” cannot be ordered by percent of wild-type binding: > 70% for the first, > 70% for the second.

“TDRD3 DUF–OB R96M/V109M (from UniProt Q9H7E2-3 1-161) (domain or fragment)” and “TDRD3 DUF–OB V109M (from UniProt Q9H7E2-3 1-161) (domain or fragment)” cannot be ordered by percent of wild-type binding: > 70% for the first, > 70% for the second.

“TDRD3 DUF–OB V109M/F111Y/F139V (from UniProt Q9H7E2-3 1-161) (domain or fragment)” and “TDRD3 DUF–OB F139V (from UniProt Q9H7E2-3 1-161) (domain or fragment)” cannot be ordered by percent of wild-type binding: > 70% for the first, > 70% for the second.

“TDRD3-RMI1loop (from UniProt Q9H7E2-3 1-78; Q9H9A7 95-132; Q9H7E2-3 93-161) (domain or fragment)” was tested, and the percent of wild-type binding was 70%.

With “TDRD3 DUF–OB R96M/V109M/F139V (from UniProt Q9H7E2-3 1-161) (domain or fragment)” the percent of wild-type binding was 35% and 30%.

Target: GST-TOP3β (1–612), wild type (human) (UniProt O95985)
Experiment: pull-down; GST-TOP3β (1–612) on Glutathione Sepharose FF, 1.0 μM TDRD3 or RMI1 protein (Fig. 3f right, 4b); same buffer, 4 °C, 2 hrs; Coomassie, densitometry
Settings: not given

First: TDRD3 DUF–OB A80S/A81Q/A90K/A91P/P92S (from UniProt Q9H7E2-3 1-161) (domain or fragment)
Second: TDRD3 DUF–OB V^79-SSGG-P^92 (from UniProt Q9H7E2-3 1-161) (domain or fragment)
The percent of wild-type binding of the first is higher: 80% for the first, 40% for the second.

Target: GST-TOP3β (1–612), wild type (human) (UniProt O95985)
Experiment: pull-down; GST-TOP3β (1–612) on Glutathione Sepharose FF, 0.2 μM TDRD3 protein (Fig. 3f left); same buffer, 4 °C, 2 hrs; Coomassie, densitometry
Settings: not given

Compared with “TDRD3 DUF–OB A80S/A81S (from UniProt Q9H7E2-3 1-161) (domain or fragment)”, “TDRD3 DUF–OB P92S (from UniProt Q9H7E2-3 1-161) (domain or fragment)” is lower in percent of wild-type binding: > 60% for the first, 50% for the second.

Compared with “TDRD3 DUF–OB P82S (from UniProt Q9H7E2-3 1-161) (domain or fragment)”, “TDRD3 DUF–OB P^82-GSGSGGS-A^90 (from UniProt Q9H7E2-3 1-161) (domain or fragment)” is lower in percent of wild-type binding: > 60% for the first, 60% for the second.

Going from “TDRD3 DUF–OB V79S/P82S (from UniProt Q9H7E2-3 1-161) (domain or fragment)” to “TDRD3 DUF–OB V79S (from UniProt Q9H7E2-3 1-161) (domain or fragment)”, the percent of wild-type binding rises from 30% to > 60%.

Target: T1, TOP3β TOPO domain (1–612) (human, UniProt O95985 1-612)
T1 construct: human Topoisomerase IIIβ, topoisomerase (TOPO) domain, residues 1–612; also called TOP3β (1–612); catalytic domain of TOP3β; source: baculovirus-infected Sf9 cells, purified (Glutathione Sepharose, GST removed by HRV 3C protease, SEC); not shown: GST, N-terminal, cleaved
T1 sequence (looked up): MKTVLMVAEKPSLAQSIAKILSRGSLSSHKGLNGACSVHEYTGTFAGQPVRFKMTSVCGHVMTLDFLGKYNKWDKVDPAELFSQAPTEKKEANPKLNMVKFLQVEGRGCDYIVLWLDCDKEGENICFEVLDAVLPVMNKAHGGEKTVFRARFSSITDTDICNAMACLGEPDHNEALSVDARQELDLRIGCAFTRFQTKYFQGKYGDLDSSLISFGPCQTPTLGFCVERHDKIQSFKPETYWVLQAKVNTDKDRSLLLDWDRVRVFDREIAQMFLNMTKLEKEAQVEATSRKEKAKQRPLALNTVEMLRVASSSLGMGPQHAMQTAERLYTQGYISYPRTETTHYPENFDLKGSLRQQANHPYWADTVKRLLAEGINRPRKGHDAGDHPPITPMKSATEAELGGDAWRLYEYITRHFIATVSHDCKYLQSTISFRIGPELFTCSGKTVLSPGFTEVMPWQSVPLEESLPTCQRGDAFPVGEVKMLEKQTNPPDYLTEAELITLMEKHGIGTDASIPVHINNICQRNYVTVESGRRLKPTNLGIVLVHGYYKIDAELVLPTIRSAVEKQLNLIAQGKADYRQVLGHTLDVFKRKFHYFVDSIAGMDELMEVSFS
Experiment: crystal structure; TOP3β (1–612)–TDRD3 (1–161) complex, 3.6 Å; sitting drop, 20 °C, 50 mM Na-cacodylate pH 6.2, 10 mM MgSO4, 1.7 M Li2SO4
Settings: both partners purified

B1: binds.

Target: T1, TOP3β TOPO domain (1–612)
Experiment: SEC; binding analysis using size-exclusion column chromatography (Supplementary Fig. 3a)
Settings: both partners purified

B2: binds.
